Key:
Assay in all cases: FRET or BRET
[1] = molecular target: CipA cohesin 7 module (c7A) (C. thermocellum) (UniProt Q06851)
[2] = molecular target: CipA cohesin 2 module (c2A), G144C, labelled with Cy3B (C. thermocellum)
[3] = molecular target: cohesin module 7 of scaffoldin CipC (c7C) (C. cellulolyticum)
[4] = molecular target: cohesin 1 from scaffoldin CipC (c1C) (C. cellulolyticum)
[5] = molecular target: CipA cohesin 1 module (c1A) (C. thermocellum) (UniProt Q06851)

Row | Substance | fraction of complexes in binding mode B1 [1] | fraction of complexes in binding mode B1 [2] | fraction of complexes in binding mode B1 [3] | fraction of complexes in binding mode B1 [4] | fraction of complexes in binding mode B1 [5] | fraction of complexes in binding mode B1 (cyclophilin-treated) [2]
1 | dockerin from cellulase A (CelA) (domain or fragment) | 0.48 | 0.37 | – | – | – | –
2 | dockerin from the cellulase 5A of C. cellulolyticum (CcCel5A) (domain or fragment) | – | – | 0.45 | 0.26 | – | –
3 | swapped version of dockerin celS (celS_Swap), helices H1 and H3 exchanged (domain or fragment) | 0.69 | 0.89 | – | – | 0.59 | –
4 | dockerin celS single residue clasp mutant Y5A (celS_Y5A) (domain or fragment) | – | 0.42 | – | – | – | 0.2
5 | dockerin CelS (type-I dockerin module of cellulase S), D63C, labelled with Alexa Fluor 647 (domain or fragment) | 0.58 | 0.43 | – | – | – | –

From article doi:10.1101/2019.12.19.882373
